Laboratory results reported in the nanobody polyreactivity screen of Harvey et al. (2022).

assay: yeast display, Sf9 membrane polyspecificity reagent, FACS + sequencing; frameworks hold sequencing errors
Procedure, shortened: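 Galactose-induced (36–48 hours) yeast carrying a synthetic nanobody display library were exposed to 10% biotinylated, detergent-solubilized Sf9 membrane reagent at 4 °C for 1 hour. FACS followed streptavidin microbead enrichment, using low and high (top ~1%) gates for expression (anti-HA) and reagent binding (streptavidin). Colony PCR, MiSeq 2 × 250 sequencing and CDR-length filtering followed. Labels for polyreactivity reflect the gate of origin.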

| Sequence | polyreactivity (PSR sort gate) |
| --- | --- |
| QVQLVESGGGLVQAGGSLRLSCAASGSTFRHNAMGRYRPAPGKERELVAAITRSGGRTFYADSVKGRFTISRDNAKNTVYLQMNSLKPEDTAVYYCAAERITPYDSSSAYDYWGQGTQVTVSS | low polyreactivity |
| QVQLVESGGGLVQAGGSLRLSCAASGSTFRIYAMGWYRQAPGKDRELVAGITRRGGSTFYADSVKGRFTISRDNANNTVYLQMNSLKPEDTAVYYCAARFRGGMDYWGQGTQVTVSS | high polyreactivity |
| QVQLVESGGGLVQAGGSLRLSCAASGSTFRIYAMGWYRQAPGKERELVAAISRSGGSTYYADSVKGRFTISRDNAKNTVYLQMNSLKPEDTAVYYCAAQPSYRYYKSYDYWGQGTQVTVSS | high polyreactivity |
| QVQLVESGGGLVQAGGSLRLSCAASGSTFRIYAMGWYRQAPGKERELVAAISSGGRTNYADSVKGRFTISRDNAKNTVYLQMNSLKPEDTAVYYCNAVFLPTYHFDYWGQGTQVTVSS | high polyreactivity |
| QVQLVESGGGLVQAGGSLRLSCAASGSTFRIYVMGWYRQAPGKEREFVAAISRGGGSTYYADSVKGRFTISRDNAKNTVYLQMNSLKPVDTAVYYCAAVTRDYGSRSGLDYWGQGTQVTVSS | high polyreactivity |
| QVQLVESGGGLVQAGGSLRLSCAASGSTFRKYAMGWYRHAPGKEREFVAAITWSTGTTYYADSVKGRFTISRDHAKNTVYLQMNSLKPEDTAVYDCAADSQPPHELYESIEHESWGQGTQVTVSS | low polyreactivity |
| QVQLVESGGGLVQAGGSLRLSCAASGSTFRKYAMGWYRQAPGKERELVAAISRGGTSTYYADSVKGRFTISRDNAKNTVYLQMNSLKPEDTAVYYCRYFRYSYGTKYDYWGQGTQVTVSS | high polyreactivity |
| QVQLVESGGGLVQAGGSLRLSCAASGSTFRLNAMGWYRQAPGKERELVAAISWTGGSTYYADSVKGRFTISRDNAKNTVSLQMNSLKPEDSAVYYCATVSYYDRYDYDYWGQGTQVTVSS | low polyreactivity |
| QVQLVESGGGLVQAGGSLRLSCAASGSTFRLYAMGWYRQAAGKERELVAAISYSGGSTYYADSVKGRFTISRDTAKNTVYLQMNSLKPEETAVYYCNAVRRHGGYYDYGYWGQGTQVTVSS | high polyreactivity |
| QVQLVESGGGLVQAGGSLRLSCAASGSTFRLYAMGWYRQAPGKERELVAAISSRGGSTYYADSVKGRFTISRDNAKNTVYLQMNSLKPEDTAVYYCATDYITPSSEGDYWGQGTQVTVTS | high polyreactivity |
| QVQLVESGGGLVQAGGSLRLSCAASGSTFRNAMGWYRQAPGKERELVAAISYSGGRTYYADSVKGRFTISRDNAKNTVYLQMNSLKPEDTAVYYCASPGVSWSTRSYYYWGQGTQVTVSS | high polyreactivity |
| QVQLVESGGGLVQAGGSLRLSCAASGSTFRNYAMGWYRQAPGKERELVAAITKRGGTTYYADSVKGRFTISRDNAKNTCYLQMNSLKPEDTAVYYCATGYNSSPFDYWGQGTQVTVSS | high polyreactivity |
| QVQLVESGGGLVQAGGSLRLSCAASGSTFRNYAMGWYRQAPGKERELVAAITKRGGTTYYADSVKGRFTISRDNAKNTVYLQMNSLKPEDTAVYYCATRQLSKVKDMDYWGQGTQVTVSS | high polyreactivity |
| QVQLVESGGGLVQAGGSLRLSCAASGSTFRPNAMGWYRQAPGTERELVAAITSGGSTYYADSVKGRFTISRDNAKNTVYLQMNRLKPEDTAVYYFNKDKFWSYPVQVNLDYWGQGTQVTVSS | low polyreactivity |
| QVQLVESGGGLVQAGGSLRLSCAASGSTFRPYAKGWYRQAPGKERELVAAISNGGNTNYADSVKGRFSISRDNAKNTVYLQMNSLIPEDTAFYYCAKTFRGQPYLRYRYYYWGQGTQVTVSS | high polyreactivity |
| QVQLVESGGGLVQAGGSLRLSCAASGSTFRPYAMGWYRQAPGKERELVAAITFNGDTYADSVKGRFTISRDNAKNTVYLQMNSLKPEDTAVYYCNAESVSSPPYYDYWGQGTQVTVSS | high polyreactivity |
